Measured values published in paper PMC11127761.

Assays:
Assay in all cases: electrochemical aptasensor (IPA 500 Hz, flow cell)
Conditions in all cases: 1-1000 pg/mL; NPY signal about 10x higher; 5' thiol C6 (disulfide reduced), 3' amino linker; aCSF pH 7.4 (composition by citation); SWV -0.4 to 0.0 V, 30 Hz; IPA 500 Hz in flow cell; assay temperature not stated
Peptide YY (PYY) = Peptide YY (PYY) (UniProt P10082)
Somatostatin (SOM) = target: T1, Somatostatin (SOM) (UniProt P61278)
T1 sequence: AGCKNFFWKTFTSC

[1] = target: T2, Pancreatic polypeptide (PP) (UniProt P01298)
T2 sequence: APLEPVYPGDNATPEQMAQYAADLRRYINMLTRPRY

Measured: binding signal (fraction of NPY signal)

Sequence of Peptide YY (PYY) (P10082 29-64): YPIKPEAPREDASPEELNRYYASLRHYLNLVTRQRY

AGCAGCACAGAGGTCAGATGCAAACCACAGCCTGAGTGGTTAGCGTATGTCATTTACGGACCTATGCGTGCTACCGTGAA [Aptamer 4.31]
0.1: Peptide YY (PYY) | Somatostatin (SOM) | [1]
